Laboratory results from patent US4839466A, “Insulin activity messengers” (The Rockefeller University, priority 1987, dated 1989).

What was measured:
PI-glycan PLC = assay: Effects of cations and sulfhydryl reagents on PI-glycan PLC (mfVSG hydrolysis); format: biochemical, rat; details: 25 nM mfVSG, 2 hr at 37° C.; for Activity (dpm/2 hr): no addition 3970
Method: Assay of PI-glycan PLC Activity. Enzyme activity was assayed at 37° C. in a final volume of 1 ml with [^3 H]myristate-labeled C-terminal glycopeptide in 25 mM Tris, pH 7.4, with 0.1% NP-40. The reaction was terminated after 1 hr. by extraction with 1 ml toluene. Organic and aqueous phases were separated by brief centrifugation at 100 ×g and the organic phase was taken to dryness in vacuo, redissolved in 40 ul of chloroform:methanol (2:1) containing 5 ug dimyristylglycerol, and spotted on a Silica G TLC plate which had been preactivated by baking at 125° C. for 1-2 hr. The plate was developed twice in petroleum ether:diethyl ether:acetic acid (70:30:2) and then stained with iodine vapor to localize DAG. The DAG region was scraped and counted. Alternatively, 0.5 ml of the organic phase was taken directly for liquid scintillation counting.
Samples from each stage of the purification were incubated in 1 ml with 25 nM [3H]mfVSG for 2 hr at 37° C. and then extracted twice with 1 ml chloroform:methanol (200:1). The organic phases were taken to dryness and analyzed by TLC as described under Experimental Procedures. Each assay was performed in duplicate and was consistant within 10%.
Purified PI-glycan PLC was incubated with 25 nM mfVSG in the presence of the indicated reagents for 2 hr at 37° C. Enzyme activity was assayed as described for Table VIII. All assays were performed in duplicate variance was less than 10%.

BC3 Hl cells = assay: Diacylglycerol and phosphatidic acid production in labeled BC3 Hl myocytes; format: cell-based, murine
Method: FIG. 12--Time Course of Diacylglycerol and Phosphatidic Acid Production in Response to Insulin. Myocytes were incubated for 20 hrs. in serum free DMEM with [9,10^3 H]myristic acid (New England Nuclear), complexed 1:1 to bovine serum albumin. Insulin was added to cells in fresh media for the designated intervals, and reactions were stopped by removal of media and addition of 1 ml chloroform/methanol/1N HCl (200:100:1). 0.6ml H2 O was added and upper aqueous phases were discarded following centrifugation at 500×g for 5 minutes. The lower, organic phases were dried under N2 and resuspended in 1 ml diethyl ether followed by addition of 1 […]. The upper ether phase was aspirated and the lower phase reextracted with 1 ml diethyl ether. The combined ether phases, containing diacylglycerol, were dried under N2, resuspended in chloroform and spotted on silica gel G plates which were preactivated at 60° C. for 1 hr. Plates were twice developed in petroleum ether/diethyl ether/glacial acetic acid (70:30:2). Five ug of unlabeled dimyristoylglycerol were added to each sample. Spots were visualized by iodine staining. To the lower aqueous phases from the ether extraction were added 1 ml of chloroform/methanol (2:1). Following centrifugation, the resulting upper aqueous phases were discarded and the lower organic phases dried under N2, resuspended in chloroform/methanol/H2 O (9:7:2) and spotted on "soft plus" silica gel plates. These were developed in chloroform/pyridine/70% formic acid (50:30:7), and phosphatidic acid was identified by an iodine stained standard. Lipids were scraped and radioactivity determined in a liquid scintillation counter.
BC3 Hl cells were cultured on collagen coated multiwell plates or petri dishes in Dulbecco's minimal essential medium (DMEM) supplemented with 20% Nu serum or 10% fetal calf serum. Cells were grown to maximal density and confluence, at which time they become responsive to insulin. Radiolabeled precursors were added for 20 hrs. in serum-free medium. [^3 H]Myristic and arachidonic acids were complexed 1:1 to bovine serum albumin prior to addition.
Following preincubations with the appropriate isotopes, cells were resuspended in DMEM without serum and treated with 10 nM insulin at the designated intervals. Reactions were terminated by the addition of 1 ml chloroform/methanol/1N HCl (200:100:1), followed by 0.5 ml 10 mM formic acid. Following centrifugation at 500 x g for 5 min., the upper phase was discarded. For phospholipid analyses, the lower, organic phase was dried under N2, resuspended in chloroform/methanol/H2 O (9:7:2) and spotted on oxalate impregnated silica gel G plates. These were sequentially developed in chloroform/acetone/methanol/glacial acidic acid/H2 O (10:4:2:2:1) and chloroform/methanol/4N NH4 OH (45:35:10). One cm regions were scraped and eluted with chloroform/methanol (2:1) and counted. Phosphoinositide standards were identified by iodine staining.
For analysis of neutral lipids, the chloroform/methanol organic phases were dried under N2 and resuspended in 1 ml diethyl ether followed by addition of 1 ml 50 mM formic acid. The upper ether phase was aspirated and the lower aqueous phase was reextracted with 1 ml diethyl ether. The pooled ether phases were dried under N2, resuspended in chloroform and spotted on silica gel G plates which were preactiviated at 60° C. for 1 hr. Plates were twice developed in petroleum ether/diethyl ether/glacial acetic acid (70:30:2). Five ug of unlabeled dimyristoyl glycerol, myristic acid and monomyristoyl glycerol were added as carriers to each sample.

Pyruvate Dehydrogenase = assay: Generation of an enzyme modulator from liver plasma membranes, pyruvate dehydrogenase readout; format: biochemical, rat
Method: (§1) Purification of the Enzyme Modulator. Bovine liver particulate fraction was prepared as described previously [Saltiel A. R., (1984) "Preparation and Characterization of Putative Insulin Mediators from Liver", METHODS IN DIABETES […], eds. J. Larner, S. Pohl, I:73]. Solutions were incubated in 5 mM ammonium bicarbonate, pH 7.4 with 10 nM insulin or 1 ug/ml PI-PLC as described in the figure legends. Following incubation, solutions were acidified to pH 4.0 and centrifuged at 35,000 x g for 20 minutes. Resulting supernatants were extracted with chloroform/methanol (2:1). The upper aqueous phase was aspirated and methanol was evaporated. Enzyme modulating activities were purified as described in Publication No. 6 listed earlier herein. Briefly, the extract was chromatographed on DEAE-Cellulose and eluted with 0.25M triethylamine (TEA)-formate, pH 3.75. This was followed by chromatography on C-18 reversed phase resin, in the same buffer, followed by Dowex 50W X-4 in 50 mM TEA-formate, pH 3.0. The resulting eluate was lyophilized, resuspended in 50 mM TEA-formate, pH 4.5 and sequentially chromatographed on QAE-Sephadex, SAX HPLC and a P-2 gel filtration column. Only the cyclic inositol phosphate derivative residing in Peak I was examined.
(§2) Enzyme Assays. The low Km cAMP PDE was assayed in a rat adipocyte particulate fraction as previously described [Saltiel, A. R., Steigerwalt,R. W., (1986) "Purification of Putative Insulin-Sensitive cAMP Phosphodiesterase or its Catalytic Domain From Rat Adipocytes", DIABETES, 35:698] and as later modified in Publication No. 6. Activity was linear throughout 20 min. and proportional to protein concentration. Only the low Km species of the enzyme was present in this fraction. PDH activity was assayed in liver mitoplasts after preincubation with ATP as previously described [Saltiel et al., (1982) PROC. NATL. ACAD. SCI. U.S.A., 79:3513.]. Adenylate cyclase activity was also assayed in purified adipocyte plasma membranes. For all enzyme assays, variability was less than 5%.
(§3) Liver membranes were treated with or without 10 nM insulin or 1 ug/ml PI-PLC for 10 min. at 37° C. Following cetrifugation, the supernatants were extracted and purified up to and including the SAX HPLC step. Purified extracts were added to enzyme assays at a final dilution of 1:10. Enzyme activities were assayed with no additions or after addition of purified extracts from control, insulin or PIPPLC treated membrane. Percent of basal activity is expressed in parentheses. ^1 expressed as pmoles/mg protein-min. ^2 expressed as nmoles/mg protein-min.

[1] = PI-PLC treatment of lipids extracted from labeled BC3 Hl cells, TLC; format: biochemical, murine; details: PI-PLC 30 min.
Method: FIG. 8--SAX HPLC of Radiolabeled Mediators Produced by PI-PLC. Cells were prelabeled as described in FIG. 7, extracted in chloroform/methanol/1N HCl (200:100:1) and centrifuged at 1000 x g for 10 min. The supernatant was dried under N2 and resuspended in 1 mil of 50 mM ammonium bicarbonate, pH 7.4. These solutions were treated with 0.1 ug/ml PI-PLC from S. aureus for 30 min. at 37° C. Reactions were terminated by reextraction with 1 ml of chloroform/methanol/1N HCl (200:100:1) and aqueous and organic phases separated. The aqueous phases were then purified as described in FIG. 7 and chromatographed on SAX HPLC column, eluted as described.
FIG. 10--Thin Layer Chromatography of the Radiolabeled Precursor After PI-PLC Treatment. Cells were labeled, extracted, treated with or without PI-PLC and reextracted as described in FIG. 8. Organic phases were chromatographed on thin layer plates as detailed in FIG. 9.

cAMP phosphodiesterase [2] = assay: Generation of PDE messenger from liver membranes by insulin or PI-PLC; extracts assayed on cAMP phosphodiesterase; format: biochemical, rat
Method: These were generated from bovine liver particulate fractions by a modification of previously described methods. Particulate fraction was prepared from 100 g of bovine liver, and suspended in […] ammonium bicarbonate, pH 7.4. (Buffer A) at a final concentration of 2-4 mg protein/ml. This solution was incubated with […] for 10 min at 37° C., acidified to pH 4.0 with formic acid and sedimented at 45,000 g for 20 min. An equal volume of chloroform/methanol (2:1) was added to the supernatant, and the upper phase was aspirated and methanol was evaporated.
In the tests the results of which are tabulated above, liver membranes were treated as indicated for 10 min at 37° C., centrifuged and supernatants were extracted and purified up to and including the Dowex 50WX-4 step as described earlier herein under "Experimental Frocedures".
Partially purified extracts were assayed for ability to modulate cAMP phosphodiesterase. Basal activity was 56.2 pmoles/mg protein^-1 -min^-1.

Adenylate Cyclase = assay: Generation of an enzyme modulator from liver plasma membranes, adenylate cyclase readout; format: biochemical, rat
Method: as §1, §2, §3

cAMP phosphodiesterase [3] = assay: Generation of an enzyme modulator from liver plasma membranes, cAMP phosphodiesterase readout; format: biochemical, rat
Method: as §1, §2, §3

[4] = cells incubated with [3H]arachidonic acid

OCCS [2-mercaptoethanol]
% control (PI-glycan PLC; addition at 50 mM): 190 % control | Activity (dpm/2 hr) (PI-glycan PLC; addition at 50 mM): 7564 dpm/2 hr

O=C(O)CN(CCOCCOCCN(CC(=O)O)CC(=O)O)CC(=O)O [EGTA]
% control (PI-glycan PLC; addition at 100 uM): 148 % control | Activity (dpm/2 hr) (PI-glycan PLC; addition at 100 uM): 5900 dpm/2 hr

[Cl][Hg][Cl] [HgCl2]
% control (PI-glycan PLC; addition at 100 uM): 17 % control | Activity (dpm/2 hr) (PI-glycan PLC; addition at 100 uM): 677 dpm/2 hr

CNC[C@H](O)c1ccc(O)c(O)c1 [epinephrine]
change in [3H]myristoyl diacylglycerol (BC3 Hl cells; [3H]myristate labeled cells): no significant change | change in [3H]arachidonyl diacylglycerol (BC3 Hl cells; [4]): rapid increase | time of maximal increase in [3H]arachidonyl diacylglycerol (BC3 Hl cells; [4]): 1 min

B1: PI-PLC: purified phosphatidylinositol specific phospholipase C from S. aureus (protein, UniProt P45723 27-312, looked up)
1-phosphatidylinositol …: DGKHLTEINIPGSHDSGSFTLKDPVKSVWAKTQDKDYLTQMKSGVRFFDIRGRASADNMISVHHGMVYLHHELGKFLDDAKYYLSAYPNETIVMSMKKDYDSDSKVTKTFEEIFREYYYNNPQYQNLFYTGSNANPTLKETKGKIVLFNRMGGTYIKSGYGADTSGIQWADNATFETKINNGSLNLKVQDEYKDYYDKKVEAVKNLLAKAKTDSNKDNVYVNFLSVASGGSAFNSTYNYASHINPEIAKTIKANGKARTGWLIVDYAGYTWPGYDDIVSEIIDSNK
Pyruvate Dehydrogenase, percent of basal activity (Pyruvate Dehydrogenase; as E43): 296.6% | Pyruvate Dehydrogenase activity (Pyruvate Dehydrogenase; extract as E41, no addition 1.77±0.07, control membranes 2.45±0.20): 5.25±0.40 nmoles/mg protein-min. | decrease in [3H]glucosamine labeling of the precursor spot [1]: 40% | decrease in [3H]inositol labeling of the precursor spot [1]: 60% | depletion of PI [1]: 50% | stimulation/increase of production of PDE modulating activity from membranes (cAMP phosphodiesterase [2]; after partial purification, PI-PLC 1.0 ug/ml): 6 fold | PDE Activity (cAMP phosphodiesterase [2]; extract of liver membranes treated 10 min at 37° C. (1.0 nM Insulin, PI-PLC), purified up to Dowex 50WX-4, basal 56.2, untreated membranes 78.5): 191.3 pmol mg protein^-1 min^-1 | Adenylate Cyclase, percent of basal activity (Adenylate Cyclase; as E45): 25.0% | Adenylate Cyclase activity (Adenylate Cyclase; extract as E41, no addition 272±14, control membranes 210±4): 68.7±7.6 pmoles/mg protein-min. | cAMP Phosphodiesterase, percent of basal activity (cAMP phosphodiesterase [3]; as E41): 311.1% | cAMP Phosphodiesterase activity (cAMP phosphodiesterase [3]; extract of liver membranes treated with 10 nM insulin or 1 ug/ml PI-PLC 10 min. 37° C., purified to SAX HPLC, dilution 1:10, no addition 61.7±4.2, control membranes 78.5±5.6): 192±5 pmoles/mg protein-min.
